Publication PMC3683295

How the values were obtained:
[1] = target: BCL-xLΔC (human) (UniProt Q07817); experiment: native gel or EMSA
[2] = target: BCL-xLΔLΔC (human) (UniProt Q07817); experiment: native gel or EMSA
[3] = target: BCL-xLΔLΔC (human) (UniProt Q07817); experiment: AUC
[4] = target: BCL-xLΔLΔC (human) (UniProt Q07817); experiment: NMR solution structure

Row | Substance | stoichiometry N [1] | stoichiometry N [2] | stoichiometry N [3] | stoichiometry N [4]
1 | BCL-xLΔC (from UniProt Q07817-1 1-211) (domain or fragment) | 2 | – | – | –
2 | BCL-xLΔLΔC (from UniProt Q07817-1 1-211) (domain or fragment) | – | 2 | – | –
3 | PUMA^BH3 (peptide) | 1 | – | 1 | 1
